Laboratory results taken from PMC9861681, “Preparation, Purification and Characterization of Antibacterial and ACE Inhibitory Peptides from Head Protein Hydrolysate of Kuruma Shrimp, Marsupenaeus japonicus” (Molecules, 2023).

How the values were obtained:
[1] = target: T1, angiotensin I-converting enzyme (ACE, EC 3.4.15.1) from rabbit lung (rabbit, UniProt P12822 34-1310); assay: cell-based or functional assay
T1 sequence (looked up): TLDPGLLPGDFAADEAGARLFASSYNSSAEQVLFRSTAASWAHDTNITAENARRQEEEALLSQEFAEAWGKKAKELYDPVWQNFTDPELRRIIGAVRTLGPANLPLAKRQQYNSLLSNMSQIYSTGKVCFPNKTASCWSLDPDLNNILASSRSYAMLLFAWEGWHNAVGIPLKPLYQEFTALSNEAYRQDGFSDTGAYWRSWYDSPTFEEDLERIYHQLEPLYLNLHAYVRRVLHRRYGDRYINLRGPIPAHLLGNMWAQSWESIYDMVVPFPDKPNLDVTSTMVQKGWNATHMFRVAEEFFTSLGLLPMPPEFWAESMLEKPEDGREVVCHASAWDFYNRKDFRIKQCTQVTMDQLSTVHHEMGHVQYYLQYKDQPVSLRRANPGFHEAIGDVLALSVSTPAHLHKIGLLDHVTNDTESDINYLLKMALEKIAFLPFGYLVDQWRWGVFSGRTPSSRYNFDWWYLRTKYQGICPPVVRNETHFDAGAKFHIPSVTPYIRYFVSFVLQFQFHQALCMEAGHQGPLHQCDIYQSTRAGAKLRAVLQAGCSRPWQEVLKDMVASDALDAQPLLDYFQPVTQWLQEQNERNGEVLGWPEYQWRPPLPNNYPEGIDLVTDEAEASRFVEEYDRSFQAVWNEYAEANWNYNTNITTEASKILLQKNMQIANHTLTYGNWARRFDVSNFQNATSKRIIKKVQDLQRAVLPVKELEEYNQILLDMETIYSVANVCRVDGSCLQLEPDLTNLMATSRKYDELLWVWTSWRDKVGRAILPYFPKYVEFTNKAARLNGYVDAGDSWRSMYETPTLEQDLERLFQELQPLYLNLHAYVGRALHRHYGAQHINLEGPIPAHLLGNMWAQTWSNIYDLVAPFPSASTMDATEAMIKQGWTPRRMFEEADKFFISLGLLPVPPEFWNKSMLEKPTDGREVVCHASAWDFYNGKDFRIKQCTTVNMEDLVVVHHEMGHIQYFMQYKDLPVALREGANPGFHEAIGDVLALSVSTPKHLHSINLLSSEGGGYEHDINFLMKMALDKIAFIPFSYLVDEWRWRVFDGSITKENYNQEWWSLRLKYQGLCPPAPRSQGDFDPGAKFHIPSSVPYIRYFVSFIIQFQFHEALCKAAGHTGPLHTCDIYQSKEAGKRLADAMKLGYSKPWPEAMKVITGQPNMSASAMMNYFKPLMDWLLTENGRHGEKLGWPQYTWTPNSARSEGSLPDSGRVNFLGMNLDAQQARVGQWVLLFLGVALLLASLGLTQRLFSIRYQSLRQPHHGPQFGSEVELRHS

[2] = target: T1, angiotensin I-converting enzyme (ACE, …); assay: cell-based or functional assay; remark: listed apart in the source

B1: ACE inhibitory peptide Ala-Arg-Leu/Ile (ARL/I) (peptide)
chain: ARL
IC50 of ACE inhibitory activity, calculated from the molecular mass of ARL/I and Table 2 [1]: 126 µM
IC50 of ACE inhibitory activity (HHL substrate, hippuric acid at 228 nM) [2]: 45 µg/mL
